B1: tRNA-specific adenosine deaminase subunit tad3 (Schizosaccharomyces pombe (strain ATCC 38366 / 972)), Q9P7N4 (parent)
chain: MVKTNISKNSPKEATVPELDWPFKLIKSHLETRKLETENVWIACFEPKYASKVTQYVKQIRSKQKESLLHCNRLRRIQDENGSLELQIIICPEKSMTANEIGKDFEDLGIVSKMIFLYAVPAFPPLTDEQFHEWNSVWPVSYRKHVQRQDVFTVHELKRIESILEDLINAAGASHKHGEIGCAAAIYDPTTDTVLAVSVDERSKLKNPINHCVMNAINLVAKRELSRRQNRTDGSKDRYLCKDLTVVMTHEPCVMCSMGLLHSRIRRLIYCKKQPLTGGIESLYGIHWRAELNHRYLAYSGWNKPVPSIKENIHV
partner: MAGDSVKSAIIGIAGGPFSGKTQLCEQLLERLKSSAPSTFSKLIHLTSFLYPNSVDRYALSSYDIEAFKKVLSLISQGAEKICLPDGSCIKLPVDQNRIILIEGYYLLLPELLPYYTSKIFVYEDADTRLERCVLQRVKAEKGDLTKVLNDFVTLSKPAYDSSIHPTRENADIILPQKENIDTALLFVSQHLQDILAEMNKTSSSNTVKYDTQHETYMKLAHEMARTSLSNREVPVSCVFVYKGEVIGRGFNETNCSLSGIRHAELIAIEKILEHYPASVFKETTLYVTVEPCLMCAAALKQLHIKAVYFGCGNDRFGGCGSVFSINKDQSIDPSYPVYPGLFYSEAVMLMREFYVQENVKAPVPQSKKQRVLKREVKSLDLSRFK

Variants of: B1
Conditions: with tad2_schpo tad2, O94642

Question: MVKTNISKNSPKEATVPELDWPFKLIKSHLETRKLETENVWIACFEPKYASKVTQYVKQIRSKQKESLLHCNRLRRIQDENGSLELQIIICPEKSMTANEIGKDFEDLGIVSKMIFLYAVPAFPPLTDEQFHEWNSVWPVSYRKHVQRQDVFTVHELKRIESILEDLINAAGASHKHGEIGCAAAIYDPTTDTVLAVSVDERSKLKNPINHCVMNAINLVAKRELSRRQNRTDGSKDRYLCKDLTVVMTHEPCVMCNMGLLHSRIRRLIYCKKQPLTGGIESLYGIHWRAELNHRYLAYSGWNKPVPSIKENIHV [S257N] was tested. Which “effect of a mutation on the interaction” value did it give?
Answer: Its value is “decreasing interaction”.

From IntAct's records for PubMed 17875641
